This note sets out measurements from the RNAGym collection of RNA variant scans (doi:10.7554/elife.80360).

To fix the notation:
B1: HDV Ribozyme (parent)
chain: GGCCGGCAUGGUCCCAGCCUCCUCGCUGGCGCCGGCUGGGCAACAUUCCGAGGGGACCGUCCCCUCGGUAAUGGCGAAUGGGACCCA

The series covers variants of B1. The experiment in a line: self-cleavage, relative activity (ratio to wild type); higher = more cleavage; co-transcriptional.
With GGCCGGCAUGGUCCCAGCCUCCUCGCUGGCGCCGGCUGGGCAACAUUCCGAGUGGACUGUCCCCUCGGUAAUGGCGAAUGGGACCCA [G53U C58U], the self-cleavage stood at 1.03.
The value for GGCCGGCAUGGUCCCAGCCUCCUCGCUGGCGCCGGCUGGGCAACAUUCCGAGUGGACGGUCCCCUCGGUAAUGGCGAAUGGGACCCA [G53U C58G] was 0.939.
The value for GGCCGGCAUGGUCCCAGCCUCCUCGCUGGCGCCGGCUGGGCAACAUUCCGAGUGGACAGUCCCCUCGGUAAUGGCGAAUGGGACCCA [G53U C58A] was 1.02; that for GGCCGGCAUGGUCCCAGCCUCCUCGCUGGCGCCGGCUGGGCAACAUUCCGAGUGGACCGUCCCCGCGGUAAUGGCGAAUGGGACCCA [G53U U65G] was 0.831.
The value for GGCCGGCAUGGUCCCAGCCUCCUCGCUGGCGCCGGCUGGGCAACAUUCCGAGUGGACCGUCCCGUCGGUAAUGGCGAAUGGGACCCA [G53U C64G] was 0.62.
As to GGCCGGCAUGGUCCCAGCCUCCUCGCUGGCGCCGGCUGGGCAACAUUCCGAGGAGACCGUCCCAUCGGUAAUGGCGAAUGGGACCCA [G54A C64A], the self-cleavage came out at 0.453.
The value for GGCCGGCAUGGUCCCAGCCUCCUCGCUGGCGCCGGCUGGGCAACAUUCCGAGUGGACCGUCCCCUCGGUAAAGGCGAAUGGGACCCA [G53U U72A] was 0.798; that for GGCCGGCAUGGUCCCAGCCUCCUCGCUGGCGCCGGCUGGGCAACAUUCCGAGUGGACCGUCCCCUCGGUAACGGCGAAUGGGACCCA [G53U U72C] was 0.563; that for GGCCGGCAUGGUCCCAGCCUCCUCGCUGGCGCCGGCUGGGCAACAUUCCGAGUGGACCGUCCCCUCGGUAAGGGCGAAUGGGACCCA [G53U U72G] was 0.554.
The value for GGCCGGCAUGGUCCCAGCCUCCUCGCUGGCGCCGGCUGGGCAACAUUCCGAGUGGACCGUCCCCUCGGUAAUGGGGAAUGGGACCCA [G53U C75G] was 0.214; that for GGCCGGCAUGGUCCCAGCCUCCUCGCUGGCGCCGGCUGGGCAACAUUCCGAGGAGACCGUCCCCUCGGUAAUGGCGAAUGGGACCCG [G54A A87G] was 0.877; that for GGCCGGCAUGGUCCCAGCCUCCUCGCUGGCGCCGGCUGGGCAACAUUCCGAGUGGACCGUCCCCUCGGUAAUUGCGAAUGGGACCCA [G53U G73U] was 0.472.
The value for GGCCGGCAUGGUCCCAGCCUCCUCGCUGGCGCCGGCUGGGCAACAUUCCGAGUGGACCGUCCCCUCGGUAAUCGCGAAUGGGACCCA [G53U G73C] was 0.428.
With GGCCGGCAUGGUCCCAGCCUCCUCGCUGGCGCCGGCUGGGCAACAUUCCGAGUGGACCGUCCCCUCGGUAAUAGCGAAUGGGACCCA [G53U G73A], the self-cleavage is 0.831.
The value for GGCCGGCAUGGUCCCAGCCUCCUCGCUGGCGCCGGCUGGGCAACAUUCCGAGUGGACCGUCCCCUCGGUAAUGGCGAACGGGACCCA [G53U U79C] was 0.535; that for GGCCGGCAUGGUCCCAGCCUCCUCGCUGGCGCCGGCUGGGCAACAUUCCGAGUGGACCGUCCCCUCGGUAAUGGCGAAGGGGACCCA [G53U U79G] was 0.405; that for GGCCGGCAUGGUCCCAGCCUCCUCGCUGGCGCCGGCUGGGCAACAUUCCGAGUGGACCGUCCCCUCGGUAAUGGCGAAAGGGACCCA [G53U U79A] was 0.509.
The value for GGCCGGCAUGGUCCCAGCCUCCUCGCUGGCGCCGGCUGGGCAACAUUCCGAGGAGACCGUCGCCUCGGUAAUGGCGAAUGGGACCCA [G54A C62G] was 1.06; that for GGCCGGCAUGGUCCCAGCCUCCUCGCUGGCGCCGGCUGGGCAACAUUCCGAGGAGACCGUCACCUCGGUAAUGGCGAAUGGGACCCA [G54A C62A] was 0.917; that for GGCCGGCAUGGUCCCAGCCUCCUCGCUGGCGCCGGCUGGGCAACAUUCCGAGGAGACCGUCUCCUCGGUAAUGGCGAAUGGGACCCA [G54A C62U] was 1.05.
The value for GGCCGGCAUGGUCCCAGCCUCCUCGCUGGCGCCGGCUGGGCAACAUUCCGAGUUGACCGUCCCCUCGGUAAUGGCGAAUGGGACCCA [G53U G54U] was 0.831.
In the case of GGCCGGCAUGGUCCCAGCCUCCUCGCUGGCGCCGGCUGGGCAACAUUCCGAGUCGACCGUCCCCUCGGUAAUGGCGAAUGGGACCCA [G53U G54C], the self-cleavage stood at 0.845.
The value for GGCCGGCAUGGUCCCAGCCUCCUCGCUGGCGCCGGCUGGGCAACAUUCCGAGUAGACCGUCCCCUCGGUAAUGGCGAAUGGGACCCA [G53U G54A] was 0.758.
The value for GGCCGGCAUGGUCCCAGCCUCCUCGCUGGCGCCGGCUGGGCAACAUUCCGAGUGCACCGUCCCCUCGGUAAUGGCGAAUGGGACCCA [G53U G55C] was 1.01; that for GGCCGGCAUGGUCCCAGCCUCCUCGCUGGCGCCGGCUGGGCAACAUUCCGAGUGGACCGUCCCCUCGGUAAUGGCGAAUGGGACCUA [G53U C86U] was 1.14; that for GGCCGGCAUGGUCCCAGCCUCCUCGCUGGCGCCGGCUGGGCAACAUUCCGAGGAGACCGUGCCCUCGGUAAUGGCGAAUGGGACCCA [G54A C61G] was 0.881.
The value for GGCCGGCAUGGUCCCAGCCUCCUCGCUGGCGCCGGCUGGGCAACAUUCCGAGGAGACCGUUCCCUCGGUAAUGGCGAAUGGGACCCA [G54A C61U] was 1.04; that for GGCCGGCAUGGUCCCAGCCUCCUCGCUGGCGCCGGCUGGGCAACAUUCCGAGUGGACCGUCCUCUCGGUAAUGGCGAAUGGGACCCA [G53U C63U] was 0.895.
On to GGCCGGCAUGGUCCCAGCCUCCUCGCUGGCGCCGGCUGGGCAACAUUCCGAGUGGACCGUCCGCUCGGUAAUGGCGAAUGGGACCCA [G53U C63G], for which the self-cleavage was 1.02.
The value for GGCCGGCAUGGUCCCAGCCUCCUCGCUGGCGCCGGCUGGGCAACAUUCCGAGUGGACCGUCUCCUCGGUAAUGGCGAAUGGGACCCA [G53U C62U] was 1.06.
For the variant GGCCGGCAUGGUCCCAGCCUCCUCGCUGGCGCCGGCUGGGCAACAUUCCGAGUGGACCGUCGCCUCGGUAAUGGCGAAUGGGACCCA [G53U C62G], the self-cleavage is 0.793.
The value for GGCCGGCAUGGUCCCAGCCUCCUCGCUGGCGCCGGCUGGGCAACAUUCCGAGUGGACCGCCCCCUCGGUAAUGGCGAAUGGGACCCA [G53U U60C] was 0.923.
